Experimental data published in patent publication US20240181074A1, “PEGYLATED T CELL ENGAGER WITH DUAL SPECIFICITIES TO CD3 AND CD19” (Shenzhen Enduring Biotech, Ltd., priority 2021, published 2024).

Experiments:
human CD3E&CD3D protein = biological target: T1, human CD3E&CD3D protein (Homo sapiens, UniProt P07766); assay: ELISA assay, binding to human CD3E&CD3D protein; details: coating concentration of 1 μg/ml, OD450
T1 construct: purchased AcroBiosystems CDD-H52W0
Procedure: (§1) Plates were coated with SCACD3, CD3-PEG and JY108 respectively at 100 μl/well. […] After coating, each plate was washed for 3 times with PBST (200 μL/well). Next, each plate was blocked with 5% BSA in PBST at 37° C. for 2 hours. After blocking, each plate was washed with PBST for 3 times followed by the addition of either […], 0.1 μg, and 0 μg human CD19-Fc protein (Acrobiosystems, Code: CD9-H5259) in 0.5% BSA in PBST (10 μg/mL, 1 μg/mL, 0 μg/mL, 100 μL/well) or […] human CD3E&CD3D (Acrobiosytems, Code: CDD-H52W0) in 0.5% BSA in PBST (10 μg/mL, 100 μl/well) to corresponding wells. The plates were incubated at 37° C. for 1 hour followed by washing with PBST for 3 times. 100 μL of […] HRP conjugated anti-human IgG (GenScript, Code: A01854) was then added to each well. The plates were incubated at 37° C. for 1.5 hours. After incubation, each plate was washed with PBST for 3 times followed by the addition of 100 μL of TMB to each well. The development reaction for each plate was set in dark for 15 minutes and terminated with 100 μL/per well of stop solution.

patients = details: human, in vivo; cited from earlier work
human CD19 [1] = biological target: T2, human CD19 (Homo sapiens, UniProt P15391); assay: ELISA assay, binding to human CD19 protein; details: OD450
T2 sequence (P15391 20-291 limits assumed): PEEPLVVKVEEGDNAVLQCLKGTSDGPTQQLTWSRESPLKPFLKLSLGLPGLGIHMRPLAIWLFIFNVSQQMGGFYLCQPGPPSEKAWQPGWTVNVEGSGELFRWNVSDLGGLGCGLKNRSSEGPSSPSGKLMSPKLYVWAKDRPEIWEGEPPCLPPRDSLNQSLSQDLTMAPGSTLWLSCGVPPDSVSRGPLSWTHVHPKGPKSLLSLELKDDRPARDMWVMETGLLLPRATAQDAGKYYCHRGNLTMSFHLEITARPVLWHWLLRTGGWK
Procedure: as §1

human CD19 [2] = biological target: T2, human CD19; assay: BiaCore assay, binding to human CD19; details: ligand human CD19 captured on chip
From the text: (§2) The anti-CD3 scFv (SCACD3) has the amino acid sequence set forth in SEQ ID NO: 2. The anti-CD19 scFv (SCACD19) has the amino acid sequence set forth in SEQ ID NO: 1. Methods for preparation of theses samples were described in detail in WO 2018/075308 A1.
(§3) General procedure: Diluted human CD19 (AcroBiosystems, Cat. CD19-H5259) or human CD3E&3D (AcroBiosystems, Cat. CDD-H52W0) were captured on the sensor chip through Fc capture method. The capture time for human CD3E & CD3D and for human CD19 was set for 12 s and 12-30 s respectively and capture flow rate was […]. Each sample tested was serially diluted into 6-8 concentrations. The association time and dissociation time for the analytes were set for 180 s and 420 s respectively, and the flow rate for the analyte was set at […]. For surface regeneration, 10 mM Glycine-HCl buffer was used; the contact time was set for 30 s and the flow rate was […]. Flow cell 1 and blank injection of buffer in each cycle were used as double references for Response Units subtraction. All data were processed using BiaCore T2000 Evaluation software (version 3.1).

[3] = human, in vivo; cited from earlier work
human CD3E&3D = biological target: T3, human CD3E&3D (Homo sapiens, UniProt P07766); assay: BiaCore assay, binding to human CD3E&3D; details: ligand human CD3E&3D captured on chip
T3 construct: purchased AcroBiosystems CDD-H52W0
From the text: as §2, §3

[4] = in vivo; cited from earlier work
MS patients = details: at 48 weeks; cited from earlier work

T3 sequence (P07766 23-126 limits assumed): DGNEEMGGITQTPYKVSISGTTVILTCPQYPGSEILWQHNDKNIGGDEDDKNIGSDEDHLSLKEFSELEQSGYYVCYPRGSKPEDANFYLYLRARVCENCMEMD
T3 sequence (P04234 22-105 partner limits assumed): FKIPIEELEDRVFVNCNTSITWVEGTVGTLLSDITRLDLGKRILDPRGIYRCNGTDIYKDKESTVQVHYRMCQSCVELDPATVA
T1 sequence (P07766 23-126 limits assumed): as the sequence (P07766 23-126 limits assumed) above
T1 sequence (P04234 22-105 partner limits assumed): as the sequence (P04234 22-105 partner limits assumed) above

| Substance | ranking of affinity to human CD3E&CD3D (human CD3E&CD3D protein) | toxicity in patients (patients) | ranking of binding to human CD19 (human CD19 [1]) | Kd (human CD19 [2]) [nM] | ka (human CD19 [2]) [M⁻¹ s⁻¹] | kd (human CD19 [2]) [s⁻¹] | Kd (human CD19 [2]; listed as blinatumomab) [nM] | circulation half-life [3] [h] | Kd (human CD3E&3D) [nM] | ka (human CD3E&3D) [M⁻¹ s⁻¹] | kd (human CD3E&3D) [s⁻¹] | half-life [4] | MS patients experiencing relapse of the disease (MS patients) [%] |
| --- | --- | --- | --- | --- | --- | --- | --- | --- | --- | --- | --- | --- | --- |
| Blinatumomab: T-BsAb or BiTE (Bispecific T cell Engager) approved for ALL, redirecting T cells to CD19+ B cells; control drug | SCACD3>blinatumomab>JY108>SCACD3-PEG | frequent cytokine release syndrome (CRS) and central nerve system (CNS) toxicity | SCACD19>blinatumomab>JY108>SCACD19-linker | 0.207 | 1.92e+06 | 0.000397 | 0.207 | 1.25 | 1.14 | 1.08e+06 | 0.00123 | about 2 h |  |
| rituximab: anti-CD20 antibody |  |  |  |  |  |  |  |  |  |  |  |  | ~20 |
